US20230012273A1 (Boehringer Ingelheim, published 2023)
Changes are numbered by the printed parent chain. Read-outs that look alike come from different tables or passages of the source. Each block holds one binder with its values, some of them ahead of it.

Assays:
[1] = target: T1, mouse SIRPα extracellular domain + His-tag (NP_031573) (mouse, UniProt P97797 32-373); assay: SPR, Ab captured, ECD-His analyte
T1 chain: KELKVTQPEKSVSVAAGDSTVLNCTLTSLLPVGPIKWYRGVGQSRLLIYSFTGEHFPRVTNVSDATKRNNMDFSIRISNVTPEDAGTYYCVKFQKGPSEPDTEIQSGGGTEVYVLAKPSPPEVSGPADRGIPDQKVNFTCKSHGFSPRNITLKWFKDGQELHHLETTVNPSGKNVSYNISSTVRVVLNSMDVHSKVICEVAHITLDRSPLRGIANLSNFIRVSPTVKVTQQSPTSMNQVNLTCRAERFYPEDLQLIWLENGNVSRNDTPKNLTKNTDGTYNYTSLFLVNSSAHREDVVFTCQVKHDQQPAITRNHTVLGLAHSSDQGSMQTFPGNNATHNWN
Experimental: (§1) The binding affinity of anti-SIRPα antibodies to the various SIRPα analytes is determined by surface plasmon resonance (SPR) using a ProteOn XPR36 (Bio-Rad). The running buffer for this experiment and all dilutions (except where stated) are done in 1×HBS-EP+. […] The sensorchip is deactivated with 1M ethanolamine HCl for 420 sec at a flowrate of 10 μl/min.
(§2) The analyte is injected over the captured antibody for 300 sec at a flowrate of 30 μl/min. The dissociation is done for 600 sec. Two-fold serial dilutions of each SIRP protein (Extracellular Domain+His-Tag) are injected as analyte with the highest concentrations indicated in table 36 below.

[2] = target: T2, human SIRPαV1 extracellular domain + His-tag (NP_542970.1) (human, UniProt P78324 31-373); assay: SPR, Ab captured, ECD-His analyte
T2 construct: also called hSIRPαV1; HuSIRPαV1
T2 sequence (P78324 other isoform, or with tags, fused parts or gaps): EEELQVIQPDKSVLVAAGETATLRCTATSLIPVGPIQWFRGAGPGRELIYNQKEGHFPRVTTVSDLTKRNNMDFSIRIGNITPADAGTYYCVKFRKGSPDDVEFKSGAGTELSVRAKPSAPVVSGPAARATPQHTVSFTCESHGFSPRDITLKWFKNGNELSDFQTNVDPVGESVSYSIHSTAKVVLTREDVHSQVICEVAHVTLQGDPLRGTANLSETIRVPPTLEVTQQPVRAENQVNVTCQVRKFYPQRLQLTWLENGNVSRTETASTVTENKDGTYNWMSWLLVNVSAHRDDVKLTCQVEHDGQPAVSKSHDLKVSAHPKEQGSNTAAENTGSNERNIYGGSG
Method in brief: (§3)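 In HBS-EP+ (1×), captured antibodies are exposed to a twofold concentration series of SIRP extracellular domain carrying a His tag, using 300 s contact at 30 μl/min and a 600 s dissociation window.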

[3] = target: T3, human SIRPβ1 extracellular domain + His-tag (NP_006056.2) (human, UniProt O00241 30-371); assay: SPR, Ab captured, ECD-His analyte
T3 construct: also called hSIRPβ1; HuSIRPβ1
T3 sequence (O00241 other isoform, or with tags, fused parts or gaps): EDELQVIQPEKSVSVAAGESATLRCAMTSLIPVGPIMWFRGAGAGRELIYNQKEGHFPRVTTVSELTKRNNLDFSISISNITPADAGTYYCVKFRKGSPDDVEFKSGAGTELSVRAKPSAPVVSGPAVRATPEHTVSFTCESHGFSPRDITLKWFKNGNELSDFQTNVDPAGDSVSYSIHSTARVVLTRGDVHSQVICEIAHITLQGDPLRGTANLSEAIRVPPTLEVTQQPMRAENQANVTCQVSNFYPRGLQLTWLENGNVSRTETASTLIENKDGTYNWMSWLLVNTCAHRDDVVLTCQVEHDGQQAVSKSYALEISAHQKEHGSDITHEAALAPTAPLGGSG
Method in brief: as §3

[4] = target: T4, human SIRPβL/SIRPβ1v3 extracellular domain + His-tag (NP_001129316.1) (human, UniProt Q5TFQ8 30-371); assay: SPR, Ab captured, ECD-His analyte
T4 construct: also called hSIRPβ1v3; HuSIRPβ1v3
T4 sequence (Q5TFQ8 other isoform, or with tags, fused parts or gaps): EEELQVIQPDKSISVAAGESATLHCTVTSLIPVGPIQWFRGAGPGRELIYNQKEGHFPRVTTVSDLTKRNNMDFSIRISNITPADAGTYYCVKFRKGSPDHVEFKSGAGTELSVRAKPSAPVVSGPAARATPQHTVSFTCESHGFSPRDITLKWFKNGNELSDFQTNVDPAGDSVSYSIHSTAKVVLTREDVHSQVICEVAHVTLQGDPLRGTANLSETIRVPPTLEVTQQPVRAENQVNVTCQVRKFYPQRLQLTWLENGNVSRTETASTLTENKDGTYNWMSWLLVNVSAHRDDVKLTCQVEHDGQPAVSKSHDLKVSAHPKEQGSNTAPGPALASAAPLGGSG
Method in brief: as §3

[5] = target: T5, human SIRPαV2 extracellular domain + His-tag (CAA71403.1) (human, UniProt P78324 31-373); assay: SPR, Ab captured, ECD-His analyte
T5 construct: also called hSIRPαV2; HuSIRPαV2
T5 sequence (P78324 other isoform, or with tags, fused parts or gaps): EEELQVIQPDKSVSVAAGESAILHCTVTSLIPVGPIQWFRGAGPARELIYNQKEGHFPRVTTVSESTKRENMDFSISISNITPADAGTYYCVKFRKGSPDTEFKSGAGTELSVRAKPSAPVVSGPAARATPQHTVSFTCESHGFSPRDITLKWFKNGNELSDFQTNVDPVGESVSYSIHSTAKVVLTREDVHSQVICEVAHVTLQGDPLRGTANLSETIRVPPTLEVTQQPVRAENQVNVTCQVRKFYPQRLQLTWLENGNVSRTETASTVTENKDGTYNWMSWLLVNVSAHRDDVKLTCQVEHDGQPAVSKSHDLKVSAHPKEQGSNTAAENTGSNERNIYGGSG
Method in brief: as §3

[6] = target: T6, human SIRPγ extracellular domain + His-tag (NP_061026.2) (human, UniProt Q9P1W8 29-360); assay: SPR, Ab captured, ECD-His analyte
T6 construct: also called hSIRPγ; HuSIRPγ
T6 sequence (Q9P1W8 29-360): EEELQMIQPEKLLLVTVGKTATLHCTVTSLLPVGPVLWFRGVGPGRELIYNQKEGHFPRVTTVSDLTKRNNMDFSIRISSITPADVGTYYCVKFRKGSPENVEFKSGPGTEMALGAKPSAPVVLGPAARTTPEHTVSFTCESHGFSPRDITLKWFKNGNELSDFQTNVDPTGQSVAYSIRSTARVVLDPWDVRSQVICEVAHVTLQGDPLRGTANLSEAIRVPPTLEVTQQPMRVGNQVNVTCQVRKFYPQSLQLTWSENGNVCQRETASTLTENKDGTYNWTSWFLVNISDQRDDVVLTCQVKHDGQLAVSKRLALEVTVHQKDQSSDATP
Method in brief: as §3

[7] = target: T7, full-length human SIRPγ (NP_061026.2) on cells (human, UniProt Q9P1W8 29-387); assay: flow cytometry, primary human CD3+ T cells
T7 construct: on CHO and Expi-CHO cells; endogenous on primary human CD3+ T cells; also called γ WT
T7 sequence (Q9P1W8 29-387): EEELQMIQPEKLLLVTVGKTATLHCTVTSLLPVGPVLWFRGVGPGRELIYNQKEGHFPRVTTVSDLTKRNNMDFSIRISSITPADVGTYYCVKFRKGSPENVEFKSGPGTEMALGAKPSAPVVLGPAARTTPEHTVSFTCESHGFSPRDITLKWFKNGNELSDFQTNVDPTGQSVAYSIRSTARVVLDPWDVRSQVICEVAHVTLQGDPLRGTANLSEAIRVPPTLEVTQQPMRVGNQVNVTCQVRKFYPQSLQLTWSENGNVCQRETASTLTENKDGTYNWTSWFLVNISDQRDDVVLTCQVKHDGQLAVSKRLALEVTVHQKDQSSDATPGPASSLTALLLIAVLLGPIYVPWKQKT
Experimental: Antibody binding to primary human T cells expressing endogenous SIRPγ is evaluated by flow cytometry. Human peripheral blood mononuclear cells (PBMCs) are blocked with donkey IgG and incubated on ice with increasing concentrations of antibody for 60 minutes, washed and stained with AF647-conjugated donkey F(ab′)₂ anti-human IgG secondary reagent. […] Cells are washed, fixed, and analyzed by flow cytometry. Median fluorescent intensity of CD3+ gated population is determined and used as a measure of antibody binding.

[8] = target: T8, cynomolgus SIRPα extracellular domain + His-tag (NP_001271679) (cynomolgus monkey); assay: SPR, Ab captured, ECD-His analyte
T8 construct: also called CySIRPα NP_001271679; cynoSIRPα
T8 chain: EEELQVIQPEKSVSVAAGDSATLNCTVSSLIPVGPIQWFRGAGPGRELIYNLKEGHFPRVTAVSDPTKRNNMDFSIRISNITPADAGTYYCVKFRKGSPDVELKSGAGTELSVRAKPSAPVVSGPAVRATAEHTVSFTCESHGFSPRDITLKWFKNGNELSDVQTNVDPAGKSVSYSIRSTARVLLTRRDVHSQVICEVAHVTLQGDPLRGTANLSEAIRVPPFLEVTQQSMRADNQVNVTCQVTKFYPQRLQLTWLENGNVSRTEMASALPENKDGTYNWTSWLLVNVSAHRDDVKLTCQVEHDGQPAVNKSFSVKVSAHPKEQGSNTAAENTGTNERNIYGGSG
Experimental: as §1, §2

[9] = target: full-length human SIRPβ1 D→H on Expi-CHO cells (human, UniProt O00241 30-398); assay: flow cytometry, Expi-CHO cells
full-length human SIRPβ1 D→H on Expi-CHO cells, sequence (O00241 30-398 D130H): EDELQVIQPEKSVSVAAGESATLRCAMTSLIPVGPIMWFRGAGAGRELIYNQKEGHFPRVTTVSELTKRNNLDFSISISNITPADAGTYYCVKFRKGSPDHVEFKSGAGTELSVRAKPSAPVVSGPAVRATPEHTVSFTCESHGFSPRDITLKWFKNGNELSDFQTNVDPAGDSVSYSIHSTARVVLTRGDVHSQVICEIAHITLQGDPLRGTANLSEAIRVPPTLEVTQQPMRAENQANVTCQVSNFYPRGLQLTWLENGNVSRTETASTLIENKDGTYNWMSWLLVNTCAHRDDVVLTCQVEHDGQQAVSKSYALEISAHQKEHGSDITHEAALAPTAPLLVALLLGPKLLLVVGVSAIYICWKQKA
Experimental: These cells are blocked with donkey IgG and incubated on ice with increasing concentrations of antibodies for 60 minutes, washed and stained with AF647-conjugated donkey F(ab′)₂ anti-human IgG antibodies. Stained cells are washed, fixed, and analyzed by flow cytometry. Median fluorescent intensity is determined and used as a measure of antibody binding.

[10] = target: T3, human SIRPβ1 extracellular domain + …; assay: SPR, Ab captured, ECD-His analyte; remark: listed apart in the source
Experimental: as §1, §2

[11] = target: T4, human SIRPβL/SIRPβ1v3 extracellular …; assay: SPR, Ab captured, ECD-His analyte; remark: listed apart in the source
Experimental: as §1, §2

[12] = target: T6, human SIRPγ extracellular domain + …; assay: SPR, Ab captured, ECD-His analyte; remark: listed apart in the source
Experimental: as §1, §2

[13] = target: T9, full-length human SIRPβL (NP_001129316.1) on cells (human, UniProt Q5TFQ8 30-398); assay: flow cytometry, U937 SIRPα KO cells
T9 construct: on U937 SIRPα KO cells and Expi-CHO cells; also called βL WT; SIRPβ1v3
T9 sequence (Q5TFQ8 30-398): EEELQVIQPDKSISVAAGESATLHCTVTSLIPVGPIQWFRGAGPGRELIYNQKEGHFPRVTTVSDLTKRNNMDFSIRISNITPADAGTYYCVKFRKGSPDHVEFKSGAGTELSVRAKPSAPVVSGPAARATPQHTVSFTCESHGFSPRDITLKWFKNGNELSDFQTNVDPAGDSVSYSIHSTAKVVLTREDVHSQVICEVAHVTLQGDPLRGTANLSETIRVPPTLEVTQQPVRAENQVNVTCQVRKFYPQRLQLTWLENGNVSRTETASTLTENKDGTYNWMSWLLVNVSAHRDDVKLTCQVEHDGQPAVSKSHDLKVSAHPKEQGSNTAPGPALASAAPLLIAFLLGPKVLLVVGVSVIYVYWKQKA
Experimental: Antibody binding to cells expressing full-length human SIRPβ1 (NP_006056.2) and SIRPβL (NP_001129316.1) is evaluated by flow cytometry. SIRPβ1- or SIRPβL-expressing U937^{SIRPα KO} cells are blocked with donkey IgG and incubated on ice with increasing concentrations of antibodies for 60 minutes, washed and stained with AF647-conjugated donkey F(ab′)₂ anti-human IgG secondary reagent. Cells are washed, fixed, and analyzed by flow cytometry. Median fluorescent intensity is determined and used as a measure of antibody binding.

[14] = target: T10, cynomolgus SIRPβ1v3 extracellular domain + His-tag (XP_005568593) (cynomolgus monkey); assay: SPR, Ab captured, ECD-His analyte
T10 construct: also called Cyno SIRPβ1v3; cynoSIRPβ1v3
T10 chain: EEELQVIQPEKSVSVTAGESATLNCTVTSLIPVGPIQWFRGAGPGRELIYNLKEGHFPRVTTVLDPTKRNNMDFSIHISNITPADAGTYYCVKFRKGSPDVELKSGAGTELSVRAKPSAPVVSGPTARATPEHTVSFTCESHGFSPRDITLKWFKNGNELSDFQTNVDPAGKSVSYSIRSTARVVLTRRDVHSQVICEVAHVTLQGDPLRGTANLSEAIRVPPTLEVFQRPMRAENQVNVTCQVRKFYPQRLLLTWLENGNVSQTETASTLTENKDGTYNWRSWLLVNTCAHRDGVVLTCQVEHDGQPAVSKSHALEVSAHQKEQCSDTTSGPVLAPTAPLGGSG
Method in brief: as §3

[15] = target: T11, cynomolgus SIRPα extracellular domain + His-tag (EGM_02252) (cynomolgus monkey); assay: SPR, Ab captured, ECD-His analyte
T11 construct: also called CySIRPα EGM_02252; cynoSIRPα
T11 chain: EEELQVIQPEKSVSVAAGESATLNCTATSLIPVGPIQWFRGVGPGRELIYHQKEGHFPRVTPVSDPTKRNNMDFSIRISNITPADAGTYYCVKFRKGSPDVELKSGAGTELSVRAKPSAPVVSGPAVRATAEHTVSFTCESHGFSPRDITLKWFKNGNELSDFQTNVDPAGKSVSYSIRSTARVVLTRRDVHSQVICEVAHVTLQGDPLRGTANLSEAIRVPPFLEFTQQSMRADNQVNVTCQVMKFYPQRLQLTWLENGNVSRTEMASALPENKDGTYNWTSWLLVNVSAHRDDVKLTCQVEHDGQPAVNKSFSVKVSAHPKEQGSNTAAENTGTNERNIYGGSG
Method in brief: as §3

[16] = target: T12, cynomolgus SIRPγ extracellular domain + His-tag (XP_005568591) (cynomolgus monkey, UniProt Q9P1W8 29-359 (human entry)); assay: SPR, Ab captured, ECD-His analyte
T12 construct: also called Cyno SIRPγ; cynoSIRPγ
T12 chain: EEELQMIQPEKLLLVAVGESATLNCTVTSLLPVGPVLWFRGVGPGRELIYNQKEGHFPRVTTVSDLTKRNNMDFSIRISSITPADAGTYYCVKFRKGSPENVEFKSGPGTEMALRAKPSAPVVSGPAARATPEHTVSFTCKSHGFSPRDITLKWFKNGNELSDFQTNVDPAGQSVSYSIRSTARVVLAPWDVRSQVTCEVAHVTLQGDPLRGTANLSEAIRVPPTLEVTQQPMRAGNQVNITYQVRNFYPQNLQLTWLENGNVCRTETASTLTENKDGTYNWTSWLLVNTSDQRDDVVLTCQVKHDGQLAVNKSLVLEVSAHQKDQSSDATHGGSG
Method in brief: as §3

[17] = target: T13, cynomolgus SIRPα extracellular domain + His-tag (XP_015313155) (cynomolgus monkey); assay: SPR, Ab captured, ECD-His analyte
T13 construct: also called CySIRPα XP_015313155; cynoSIRPα
T13 chain: T8 chain with A62P, V163F, L185V
Method in brief: as §3

- binding result [1]: no binding
- Kd [2]: 0.497 nM
- Kd [3]: 1270 nM
- Kd [4]: 1.27 nM
- Kd [5]: 0.465 nM
- binding result [6]: no binding (tested: 1000 nM)
- binding result [7]: no binding
B1: Antibody G (antibody, human IgG4 S228P, kappa)
heavy: not shown
light: DIVMTQSPLSLPVTPGEPASISCKSSQSLLYSNGYNYLDWYLQRPGQSPQLLIYLGSNRASGVPDRFSGSGSGTDFTLKISRVEAEDVGVFYCMQALQTPLTFGGGTKVEIKRTVAAPSVFIFPPSDEQLKSGTASVVCLLNNFYPREAKVQWKVDNALQSGNSQESVTEQDSKDSTYSLSSTLTLSKADYEKHKVYACEVTHQGLSSPVTKSFNRGEC

- binding result [1]: no binding
- binding result [8]: no binding (tested: 1000 nM)
- Kd [2]: 17.4 nM
- Kd [5]: 71.5 nM
- binding result [6]: no binding (tested: 1000 nM)
B2: Antibody B (antibody, human IgG1, kappa, L234A L235A, V domains shown)
VH: QVQLVQSGAEVKKPGASVKVSCKASGYTFTGNYMHWVRQAPGQGLEWMGWINPNSGGTNYAQKFQGRVTMTRDTSISTAYMELSRLRSDDTAVYYCVSGSGWYENYYYYGMDVWGQGTTVTVSS
VL: DIQMTQSPSSVSASVGDRVTITCRASQGISSWLAWYQQKPGKAPKLLIYAESSLQSGVPSRFSGSGSGTDFTLTISSLQPEDFATYYCQQANSFPLTFGGGTKVEIKR

- binding result [9]: no binding
- Kd [10]: 67.2 nM
- binding result [11]: no binding (tested: 100 nM)
- binding result [12]: no binding (tested: 1000 nM)
- binding result [13]: no binding
- Kd [14]: 460 nM
- Kd [15]: 508 nM
- binding result [16]: no binding (tested: 1000 nM)
- Kd [17]: 374 nM
- binding result [7]: no binding
B3: Antibody A4 (antibody, human IgG1, kappa, L234A L235A, V domains shown)
VH: EVQLVESGGGLVQPGGSLRLSCAASGFTLSSYDMHWVRQAPGKGLEWVSAIGTAGDTYYTGSVKGRFTISRENAKNSLYLQMNSLRAADTAVYYCVRGGVWDDAFDIWGQGTMVTVSS
VL: DIQMTQSPSSLSASVGDRVTITCRASQGINNYAAWFQQKPGKAPKSLIYTASSLHSGVPSKFSGSGSGTDFTLTISSLQPEDFATYYCQQYVSYPYTFGQGTKLEIKR
